{"source": "paper PMC7480107", "biological_target": "F-actin (rabbit muscle actin, polymerized) (rabbit) (UniProt P68135)", "assay": "co-sedimentation"}
{"substance": "Pav-HEAD (1-500 aa) (domain or fragment)", "values": [{"measurement": "percent of the protein in the pellet with F-actin", "result": 84, "unit": "%"}]}
{"substance": "Pav^DEAD-HEAD (1-500 aa with G131E mutation) (domain or fragment)", "values": [{"measurement": "percent of the protein in the pellet with F-actin", "result": 87, "unit": "%"}]}
